# Columns and labels:
# [1] = molecular target: T1, recombinant human Axl-Fc chimera (R&D Systems, Cat. no. 154-AL) (human, UniProt P30530 26-451); experiment: SPR, Biacore 3000, 25 C, rhAxl-Fc immobilised on CM5 (190 RU); half-life of the complex as ln2/koff
# T1 construct: extracellular domain; Bought reagent; also called rhAxl-Fc; rhAxl; not shown: Fc part (and any linker or tag) of the bought chimera; not described
# Experimental: (§1) The precise kinetic analysis was performed using BIA evaluation software and curve fitting according to 1:1 Langmuir binding model.
# [2] = molecular target: T1, recombinant human Axl-Fc chimera (R&D …); experiment: SPR, Biacore 3000, 25 C, rhAxl-Fc immobilised on CM5 (190 RU), antibody injected, 1:1 Langmuir model
# Experimental: as §1
# [3] = molecular target: T2, recombinant human Mer-Fc chimera (R&D Systems, Cat. no. 891-MR) (human, UniProt Q12866 21-505); experiment: SPR (Biacore 3000), rhMer-Fc immobilised on a CM5 chip, antibody injected for 3 min [panel 10G5]
# T2 construct: Bought reagent; also called rhMer-Fc; rhMer; not shown: Fc part (and any linker or tag) of the bought chimera; not described
# T2 sequence: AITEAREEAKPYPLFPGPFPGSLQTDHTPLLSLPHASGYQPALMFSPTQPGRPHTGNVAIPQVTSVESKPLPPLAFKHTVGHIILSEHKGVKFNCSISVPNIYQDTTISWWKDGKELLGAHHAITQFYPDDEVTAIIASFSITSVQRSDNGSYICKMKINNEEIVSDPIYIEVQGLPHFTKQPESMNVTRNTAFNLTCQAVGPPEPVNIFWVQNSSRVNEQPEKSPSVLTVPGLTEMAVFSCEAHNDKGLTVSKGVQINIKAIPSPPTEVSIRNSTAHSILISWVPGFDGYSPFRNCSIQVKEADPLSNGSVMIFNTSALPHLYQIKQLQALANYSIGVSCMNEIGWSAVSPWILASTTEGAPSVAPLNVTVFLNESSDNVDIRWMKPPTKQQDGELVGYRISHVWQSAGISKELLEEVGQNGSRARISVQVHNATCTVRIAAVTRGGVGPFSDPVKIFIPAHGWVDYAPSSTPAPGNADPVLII
# Experimental: (§2) All binding experiments were performed using Biacore 3000 instrument (GE Healthcare) at 25° C. Soluble recombinant antigens corresponding to the extracellular domains of members of the human TAM receptor family, Axl (rhAxl-Fc chimera; R&D Systems, Cat. no. 154-AL), Mer (rhMer-Fc chimera; R&D Systems, Cat. no. 891-MR) and Tyro3 (rhTyro3/Dtk-Fc chimera; R&D Systems, Cat. no. 859-DK) were immobilized on the surface of CM5 sensor chip using amine coupling at the surface density of 393.0, 303.6 and 364.0 resonance units (RU), respectively. The Biacore run was performed in an automatic mode using Binding to analysis wizard.
# [4] = molecular target: T3, recombinant mouse Axl-Fc chimera (R&D Systems, Cat. no. 854-AX) (mouse, UniProt Q00993 19-445); experiment: SPR (Biacore 3000), rmAxl-Fc immobilised on a CM5 chip, antibody injected for 3 min [panel 10G5]
# T3 construct: Bought soluble reagent; also called rmAxl-Fc; rmAxl; not shown: Fc part (and any linker or tag) of the bought chimera; not described
# Experimental: (§3) The binding experiments were performed using Biacore 3000 instrument (GE Healthcare) at 25° C. The soluble recombinant antigens corresponding to human Axl (rhAxl-Fc chimera; R&D Systems, Cat. no. 154-AL), mouse Axl (rmAxl-Fc chimera; R&D Systems, R&D Systems; Cat. no. 854-AX) and human Tyro3 (rhTyro3/Dtk-Fc chimera; R&D Systems, Cat. no. 859-DK) were immobilized on the surface of CM5 sensor chip using amine coupling at the surface density of 1,308.0, 2,115.9 and 1,429.0 RU, respectively. The Biacore runs were performed in an automatic mode using Binding analysis wizard.
# [5] = molecular target: T4, recombinant human Tyro3/Dtk-Fc chimera (R&D Systems, Cat. no. 859-DK) (human, UniProt Q06418 41-429); experiment: SPR (Biacore 3000), rhTyro3/Dtk-Fc immobilised on a CM5 chip, antibody injected for 3 min [panel 10G5]
# T4 construct: Bought reagent; also called rhTyro3/Dtk-Fc; rhTyro3; not shown: Fc part (and any linker or tag) of the bought chimera; not described
# T4 sequence: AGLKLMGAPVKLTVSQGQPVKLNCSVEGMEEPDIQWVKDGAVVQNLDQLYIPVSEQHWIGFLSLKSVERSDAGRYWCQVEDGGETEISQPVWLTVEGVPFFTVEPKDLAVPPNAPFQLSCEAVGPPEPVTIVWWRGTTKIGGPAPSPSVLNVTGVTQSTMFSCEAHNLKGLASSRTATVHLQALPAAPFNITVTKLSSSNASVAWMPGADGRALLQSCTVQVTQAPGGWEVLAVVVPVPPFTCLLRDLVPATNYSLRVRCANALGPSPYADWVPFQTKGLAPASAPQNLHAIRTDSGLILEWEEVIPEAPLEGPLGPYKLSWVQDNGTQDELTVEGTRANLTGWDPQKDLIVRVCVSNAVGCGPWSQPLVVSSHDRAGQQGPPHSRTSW
# Experimental: as §2
# [6] = molecular target: T5, recombinant cyno-Axl-Fc (extracellular domain of cynomolgus monkey Axl fused to human Fc) (cynomolgus monkey (Macaca fascicularis), UniProt P30530 26-451 (human entry)); experiment: SPR (Biacore 3000), cyno-Axl-Fc immobilised on a CM5 chip, antibody injected at 10 µg/mL for 3 min, 5 min dissociation [panel 10G5]
# T5 construct: also called Axl from cynomolgus monkey; not shown: human Fc
# T5 chain: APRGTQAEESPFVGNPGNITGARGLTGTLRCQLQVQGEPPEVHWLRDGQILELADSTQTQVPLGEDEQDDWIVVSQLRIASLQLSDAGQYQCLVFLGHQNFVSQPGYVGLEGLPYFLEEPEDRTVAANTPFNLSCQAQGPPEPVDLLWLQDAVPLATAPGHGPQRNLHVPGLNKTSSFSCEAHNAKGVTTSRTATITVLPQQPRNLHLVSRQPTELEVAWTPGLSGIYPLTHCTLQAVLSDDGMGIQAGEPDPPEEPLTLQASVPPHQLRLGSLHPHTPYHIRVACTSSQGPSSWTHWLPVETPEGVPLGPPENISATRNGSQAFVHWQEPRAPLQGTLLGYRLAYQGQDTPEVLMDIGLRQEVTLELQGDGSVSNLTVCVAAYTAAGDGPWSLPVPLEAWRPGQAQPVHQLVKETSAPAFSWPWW
# Experimental: (§4) The sequence of Axl receptor from cynomolgus monkey (Macace fascicularis; SEQ ID NO.43) was retrieved from WO2009062690A1. Based on the sequence, recombinant extracellular domain of cyno-Axl was generated by transient expression in CHO cells as a fusion protein with human Fc. […] The binding experiments were performed using Biacore 3000 instrument (GE Healthcare) at 25° C. […] The Biacore runs were performed in an automatic mode using Binding analysis wizard.
# [7] = molecular target: T6, human Axl receptor on cells (Axl-positive MDA-MB-231 cells; HeLa cells; Axl+ cells) (human, UniProt P30530 26-894); experiment: flow cytometry on MDA-MB-231 cells, detection with APC-conjugated donkey anti-human IgG (H+L) F(ab')2
# T6 construct: whole, on cells; Endogenous Axl of human cell lines; also called Axl-positive cells
# Experimental: The cell staining was measured using Accuri C6 flow cytometer (BD Biosciences). MFI, geometric mean fluorescence intensity.
# For flow cytometry, the adherent cells in culture were washed with PBS, detached by treatment with trypsin (0.25%) for 1 min and hitting culture dish for full detachment. Trypsin was quenched by adding into the tissue flask the complete medium followed by washing the cells with PBS. During the washing steps, the cells were collected by centrifugation at 200 g for 5 min. The antibody was diluted for total concentration in PBS containing 0.02% bovine serum albumin (BSA). Cell staining was performed using 200 μL of cell suspension comprising 10⁵ cells for 20 min at room temperature. The cell-bound antibodies were detected with APC-conjugated donkey anti-human or anti-mouse, respectively, IgG (H+L) F(ab′)₂ fragments (Jackson ImmunoResearch). After two washing steps with PBS/0.02% BSA, the cells were resuspended in 200 μL and kept on ice before analysis on Accuri C6 flow cytometer (BD Biosciences).
# [8] = molecular target: T2, recombinant human Mer-Fc chimera (R&D …); experiment: SPR (Biacore 3000), rhMer-Fc immobilised on a CM5 chip, antibody injected for 3 min [panel 10C9]
# Experimental: as §2
# [9] = molecular target: T3, recombinant mouse Axl-Fc chimera (R&D …); experiment: SPR (Biacore 3000), rmAxl-Fc immobilised on a CM5 chip, antibody injected for 3 min [panel 10C9]
# Experimental: as §3
# [10] = molecular target: T4, recombinant human Tyro3/Dtk-Fc chimera …; experiment: SPR (Biacore 3000), rhTyro3/Dtk-Fc immobilised on a CM5 chip, antibody injected for 3 min [panel 10C9]
# Experimental: as §2
# [11] = molecular target: T6, human Axl receptor on cells …; experiment: flow cytometry on MDA-MB-231 cells, detection with APC-conjugated donkey anti-mouse IgG (H+L) F(ab')2
# [12] = molecular target: T5, recombinant cyno-Axl-Fc (extracellular …); experiment: SPR (Biacore 3000), cyno-Axl-Fc immobilised on a CM5 chip, antibody injected at 10 µg/mL for 3 min, 5 min dissociation [panel 10C9]
# Experimental: as §4
# T3 sequence (Q00993 other isoform, or with tags, fused parts or gaps mutant): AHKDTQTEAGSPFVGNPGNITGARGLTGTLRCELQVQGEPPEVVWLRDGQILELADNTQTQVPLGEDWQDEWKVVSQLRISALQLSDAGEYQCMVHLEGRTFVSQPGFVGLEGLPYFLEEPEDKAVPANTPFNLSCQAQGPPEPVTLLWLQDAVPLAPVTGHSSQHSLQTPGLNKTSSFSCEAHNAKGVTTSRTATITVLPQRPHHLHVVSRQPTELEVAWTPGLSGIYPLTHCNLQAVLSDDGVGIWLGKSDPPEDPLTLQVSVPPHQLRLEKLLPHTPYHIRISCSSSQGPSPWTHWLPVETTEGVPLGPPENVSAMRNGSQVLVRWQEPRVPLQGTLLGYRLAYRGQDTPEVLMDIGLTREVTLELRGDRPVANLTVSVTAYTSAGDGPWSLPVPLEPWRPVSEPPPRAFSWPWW
Half-life (t1/2) [1] [min],Kd [2] [pM],koff [2] [s⁻¹],kon [2] [M⁻¹ s⁻¹],binding result [3],binding result [4],binding result [5],binding result [6],EC50 (read off the curve) [7] [pM],binding result [8],binding result [9],binding result [10],EC50 (read off the curve) [11] [pM],binding result [12],Binder
26.3,530,0.000439,829000,no binding (tested: 10 µg/mL),no binding (tested: 10 µg/mL),no binding (tested: 10 µg/mL),binds,,,,,,,"mouse monoclonal antibody 10G5 (from hybridoma WR-10G5-E5) (antibody, IgG1, V domains shown, Whole mouse antibody purified from hybridoma supernatant; also called MAb 10G5) VH: QVQLQQSGAELVRPGASVKLSCKASGYSFTDFYINWVRQRPGQGLEWIARIFPGGDNTYYNEKFKGKATLTAEESSSTAYIQLSSLTSEDSAVYFCARRGLYYAMDYWGQGISVTVSS VL: DVLMTQTPLSLPVSLGDQASISCRSSQSLVHSNGIPYLHWYLQKPGQSPKLLIYRVSNRFSGVPDRFSGSGSGTDFTLKISRVEAEDLGVYFCSQGTHVPPTFGGGTKLEIK"
68.4,103,0.000169,1.64e+06,,,,,~200,,,,,,"chimeric (mouse variable/human constant) IgG1 antibody c10G5 (antibody, V domains shown, 10G5 VH and VL joined in frame to human IgG1 and C-kappa constant domains, made in CHO cells; also called chimeric 10G5; not shown: constant domains of the human IgG1 heavy chain; constant domain of the human light (C-kappa) chain) VH: QVQLQQSGAELVRPGASVKLSCKASGYSFTDFYINWVRQRPGQGLEWIARIFPGGDNTYYNEKFKGKATLTAEESSSTAYIQLSSLTSEDSAVYFCARRGLYYAMDYWGQGISVTVSS VL: DVLMTQTPLSLPVSLGDQASISCRSSQSLVHSNGIPYLHWYLQKPGQSPKLLIYRVSNRFSGVPDRFSGSGSGTDFTLKISRVEAEDLGVYFCSQGTHVPPTFGGGTKLEIK"
40,180,0.000289,1.61e+06,,,,,,no binding (tested: 10 µg/mL),no binding (tested: 10 µg/mL),no binding (tested: 10 µg/mL),~200,binds,"mouse monoclonal antibody 10C9 (from hybridoma UT-10C9-B9) (antibody, IgG2b, V domains shown, Whole mouse antibody purified from hybridoma supernatant; Possible N-glycosylation site (NFT) in CDR-H1; also called MAb 10C9) VH: QVQLQQPGPELVKPGASVKISCKTSDYNFTRYYIHWVKQRPGQGLEWIGWIYPGTGDSKYNEKFKGRATLTADTSSSTAYMQLSSQTSEDSAVYFCARNGNYWYFDVWGAGTAVTVSS VL: DIVMTQAAPSGPVTPGESVSISCRSSKSLLHSNGNTYLYWFLQRPGQSPQLLIYRMSNLASGVPDRFSGSGSGTAFTLRISRVEAEDVGIYYCMQHREYPFTFGGGTKLEIK"
52.8,102,0.000219,2.16e+06,,,,,~200,,,,,,"chimeric (mouse variable/human constant) IgG1 antibody c10C9 (antibody, V domains shown, 10C9 VH and VL joined in frame to human IgG1 and C-kappa constant domains, made in CHO cells; also called chimeric 10C9; not shown: constant domains of the human IgG1 heavy chain; constant domain of the human light (C-kappa) chain) VH: QVQLQQPGPELVKPGASVKISCKTSDYNFTRYYIHWVKQRPGQGLEWIGWIYPGTGDSKYNEKFKGRATLTADTSSSTAYMQLSSQTSEDSAVYFCARNGNYWYFDVWGAGTAVTVSS VL: DIVMTQAAPSGPVTPGESVSISCRSSKSLLHSNGNTYLYWFLQRPGQSPQLLIYRMSNLASGVPDRFSGSGSGTAFTLRISRVEAEDVGIYYCMQHREYPFTFGGGTKLEIK"

# From patent US20190177419A1 (BERGEN TEKNOLOGIOVERFORING, published 2019)
